Target: T1, rat VEGF (in rat serum) (rat, UniProt P16612-2 27-190, limits assumed)
T1 construct: also called VEGF in rat serum samples
T1 sequence (looked up): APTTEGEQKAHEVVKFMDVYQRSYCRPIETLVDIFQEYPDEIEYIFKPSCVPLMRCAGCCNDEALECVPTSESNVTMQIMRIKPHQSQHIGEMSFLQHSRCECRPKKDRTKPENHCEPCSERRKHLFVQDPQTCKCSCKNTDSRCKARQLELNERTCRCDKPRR
Experiment: Western blot, cell supernatant as primary antibody

B1: anti-VEGF Fab expressed by the MDR6 plasmid (culture supernatant of transfected cells) (Fab, V domains shown)
VH: EVQLVESGGGLVQPGGSLRLSCAASGYDFTHYGMNWVRQAPGKGLEWVGWINTYTGEPTYAADFKRRFTFSLDTSKSTAYLQMNSLRAEDTAVYYCAKYPYYYGTSHWYFDVWGQGTLVTVSS
VL: DIQLTQSPSSLSASVGDRVTITCSASQDISNYLNWYQQKPGKAPKVLIYFTSSLHSGVPSRFSGSGSGTDFTLTISSLQPEDFATYYCQQYSTVPWTFGQGTKVEIKR
notes: also called M6
B1: no binding (tested: 5 ug of rat serum).

From patent publication EP4368203A1 (Wuhan Neurophth Biotechnology Limited Company, dated 2024)
